Biological target: HLA class I-A2 molecule (human) (UniProt P04439)
Assay: T2 binding assay, peptide 50 µg/ml for 24 h, anti-HLA-A2 mAb, flow cytometry; cut off for positivity 100

“PSA [42-51] (from UniProt P07288 66-75) (peptide)” was tested, and the T2 binding, relative fluorescence (mean intensity) was 51.4.

Source: patent US6946133
